As usually defined, the Tm is the temperature at which the thermal transition is half complete.

From FireProtDB come the findings set out here.

“And” between values parts separate entries of the source, which are not always exact repeats. Equal entries are not always repeated.

The conditions of the data set: whole UniProt chain shown.
The mark [1] stands for this setting: Homo sapiens, pH 7.5, 25 °C, Urea, CD, HEPES 20 mM, NaCl 100 mM, reversible: no.
Setting [2] is: Homo sapiens, pH 7.5, 25 °C, Urea, CD, Sodium phosphate 15 mM, NaCl 100 mM, reversible: yes.
Setting [3] is: Homo sapiens, pH 7, Thermal, DSC, Tris-Maleate 0.02M, KCl 0.1 M, transition: 2, reversible: no.
Where [4] appears, read: Homo sapiens, pH 7, Thermal, DSC, Tris-Maleate / KCL 20000 / 100000, transition: 2, reversible: no.
Setting [5] is: Homo sapiens, pH 4, 25 °C, GdnHCl, CD, Tris sodium acetate MES 50 mM 20 mM 20 mM.
Where [6] appears, read: Homo sapiens, pH 7, 25 °C, GdnHCl, CD, Tris sodium acetate MES 50 mM 20 mM 20 mM.
[7] abbreviates: Homo sapiens, pH 7.8, Thermal, DSC, Potassium phosphate 2 mM, reversible: yes.
Setting [8] is: Homo sapiens, pH 7, Thermal, DSC, Potassium phosphate buffer, NaCl, reversible: yes.
The mark [9] stands for this setting: Homo sapiens, pH 8.1, Thermal, DSC, Tris-HCl 20 mM.
Where [10] appears, read: Homo sapiens, pH 8, 25 °C, GdnHCl, CD, Tris-Hcl, transition: 2.
Setting [11] is: Homo sapiens, pH 8, 25 °C, GdnHCl, fluorescence, Tris-Hcl, transition: 2.
Where [12] appears, read: Hordeum vulgare, pH 6.3, 25 °C, GdnHCl, DSC, MES-NaOH 50 mM, reversible: yes.
Setting [13] is: Hordeum vulgare, pH 6.3, 25 °C, GdnHCl, Fluorescence, Sodium phosphate 20 mM.

B1: Cyclin-dependent kinase inhibitor 2A wild type, P42771 (protein)
chain: MEPAAGSSMEPSADWLATAAARGRVEEVRALLEAGALPNAPNSYGRRPIQVMMMGSARVAELLLLHGAEPNCADPATLTRPVHDAAREGFLDTLVVLHRAGARLDVRDAWGRLPVDLAEELGHRDVARYLRAAAGGTRGSNHARIDAAEGPSDIPD
On to B1, for which, under setting [1], the “denaturant midpoint (higher = more stable)” value (“denaturant midpoint” for short) was 2.74 M and the unfolding free energy was found to be 2.7 kcal/mol. In addition, where the note is “Homo sapiens, pH 7.5, 25 °C, Urea, CD, MOPS 10 mM, NaF 50 mM, reversible: Yes”, the unfolding free energy amounted to 2.3 kcal/mol. Under setting [2], the denaturant m value was determined as 2 kcal/mol/M and the “denaturant midpoint” value came to 1.9 M. Also, the Tm (Homo sapiens, pH 7.5, Thermal, CD, HEPES 50 mM, reversible: no) is 41.5 °C.

B2: Matrilysin wild type, P09237 (protein)
chain: MRLTVLCAVCLLPGSLALPLPQEAGGMSELQWEQAQDYLKRFYLYDSETKNANSLEAKLKEMQKFFGLPITGMLNSRVIEIMQKPRCGVPDVAEYSLFPNSPKWTSKVVTYRIVSYTRDLPHITVDRLVSKALNMWGKEIPLHFRKVVWGTADIMIGFARGAHGDSYPFDGPGNTLAHAFAPGTGLGGDAHFDEDERWTDGSSLGINFLYAATHELGHSLGMGHSSDPNAVMYPTYGNGDPQNFKLSQDDIKGIQKLYGKRSNSRKK
In the case of B2, under setting [3], the Tm was 98.3 °C and the “unfolding enthalpy (calorimetric)” value was 13.7 kcal/mol. For the same protein, under setting [4], the Tm turned out to be 98.3 °C and the “unfolding enthalpy (calorimetric)” value was 13.8 kcal/mol.

B3: Interleukin-2 wild type, Q7Z7M3 (protein)
chain: MPTSSSTKKTQLQLEHLLLDLQMILNGINNYKNPKLTRMLTFKFYMPKKATELKHLQCLEEELKPLKEVLNLAQSKNFHLRPRDLISNINVIVLELKGSETTFMCEYADETATIVEFLNRWITFSQSIISTLT
As for B3, under setting [5], the “denaturant midpoint” value worked out at 4.4 M and the unfolding free energy came to 9.9 kcal/mol. In addition, under setting [6], the “denaturant midpoint” value is 3.8 M and the unfolding free energy was found to be 9.3 kcal/mol.

B4: Superoxide dismutase [Mn], mitochondrial wild type, P04179 (protein)
chain: MLSRAVCGTSRQLAPVLGYLGSRQKHSLPDLPYDYGALEPHINAQIMQLHHSKHHAAYVNNLNVTEEKYQEALAKGDVTAQIALQPALKFNGGGHINHSIFWTNLSPNGGGEPKGELLEAIKRDFGSFDKFKEKLTAASVGVQGSGWGWLGFNKERGHLQIAACPNQDPLQGTTGLIPLLGIDVWEHAYYLQYKNVRPDYLKAIWNVINWENVTERYMACKK
With B4, under setting [7], the Tm was 70 °C and the “unfolding enthalpy (calorimetric)” value was 142 kcal/mol.

B5: Gamma-crystallin D wild type, P07320 (protein)
chain: MGKITLYEDRGFQGRHYECSSDHPNLQPYLSRCNSARVDSGCWMLYEQPNYSGLQYFLRRGDYADHQQWMGLSDSVRSCRLIPHSGSHRIRLYEREDYRGQMIEFTEDCSCLQDRFRFNEIHSLNVLEGSWVLYELSNYRGRQYLLMPGDYRRYQDWGATNARVGSLRRVIDFS
With B5, the “denaturant midpoint” value (Homo sapiens, pH 7, 25 °C, GdnHCl, Fluorescence, NaPO4 10 mM, reversible: yes) was determined as 3.7 M and the “denaturant midpoint” value (Homo sapiens, pH 7, 37 °C, GdnHCl, Fluorescence, NaPO4 10 mM, reversible: yes) came to 2.7 M. In addition, the Tm came to 76.6 °C (Homo sapiens, pH 7, Thermal, ANS fluorescence, PBS, transition: 2, reversible: yes) and 80 °C (Homo sapiens, pH 7, Thermal, CD, PBS, transition: 2, reversible: yes).

B6: Protein CutA wild type, O60888 (protein)
chain: MSGGRAPAVLLGGVASLLLSFVWMPALLPVASRLLLLPRVLLTMASGSPPTQPSPASDSGSGYVPGSVSAAFVTCPNEKVAKEIARAVVEKRLAACVNLIPQITSIYEWKGKIEEDSEVLMMIKTQSSLVPALTDFVRSVHPYEVAEVIALPVEQGNFPYLQWVRQVTESVSDSITVLP
B6: under setting [8], the Tm came to 96.4 °C, the “unfolding enthalpy (calorimetric)” value was determined as 284 kcal/mol and the unfolding free energy was found to be 0 kcal/mol. The “denaturant midpoint” value (Homo sapiens, pH 8, 37 °C, GdnHCl, CD, Tris-HCl buffer, NaCl, transition: 2, reversible: yes) stood at 2.38 M.

B7: Cystatin-A wild type, P01040 (protein)
chain: MIPGGLSEAKPATPEIQEIVDKVKPQLEEKTNETYGKLEAVQYKTQVVAGTNYYIKVRAGDNKYMHLKVFKSLPGQNEDLVLTGYQVDKNKDDELTGF
Consider B7, for which, under setting [9], the Tm is 94.5 °C, the “heat capacity change of unfolding” value came out at 1.5 kcal/mol/K and the “unfolding enthalpy (calorimetric)” value was found to be 122 kcal/mol.

B8: Sphingosine kinase 1 wild type, Q9NYA1 (protein)
chain: MDPAGGPRGVLPRPCRVLVLLNPRGGKGKALQLFRSHVQPLLAEAEISFTLMLTERRNHARELVRSEELGRWDALVVMSGDGLMHEVVNGLMERPDWETAIQKPLCSLPAGSGNALAASLNHYAGYEQVTNEDLLTNCTLLLCRRLLSPMNLLSLHTASGLRLFSVLSLAWGFIADVDLESEKYRRLGEMRFTLGTFLRLAALRTYRGRLAYLPVGRVGSKTPASPVVVQQGPVDAHLVPLEEPVPSHWTVVPDEDFVLVLALLHSHLGSEMFAAPMGRCAAGVMHLFYVRAGVSRAMLLRLFLAMEKGRHMEYECPYLVYVPVVAFRLEPKDGKGVFAVDGELMVSEAVQGQVHPNYFWMVSGCVEPPPSWKPQQMPPPEEPL
For the protein B8, under setting [10], the denaturant m value turned out to be 0.42 kcal/mol/M, the “denaturant midpoint” value was determined as 2.86 M and the unfolding free energy is 1.32 kcal/mol. For the same protein, under setting [11], the denaturant m value turned out to be 0.6 kcal/mol/M, the “denaturant midpoint” value stood at 2.94 M and the unfolding free energy was 1.75 kcal/mol.

B9: Cyclin-dependent kinase 4 inhibitor D wild type, P55273 (protein)
chain: MLLEEVRAGDRLSGAAARGDVQEVRRLLHRELVHPDALNRFGKTALQVMMFGSTAIALELLKQGASPNVQDTSGTSPVHDAARTGFLDTLKVLVEHGADVNVPDGTGALPIHLAVQEGHTAVVSFLAAESDLHRRDARGLTPLELALQRGAQDLVDILQGHMVAPL
B9: the “denaturant midpoint” value (Homo sapiens, pH 7.5, 15 °C, Urea, CD, Na-phospahate 20 mM, reversible: yes) is 2.9 M. Moreover, for the setting “Homo sapiens, pH 7.5, Thermal, CD, sodium phosphate 20 mM, reversible: yes”, the Tm came out at 51.9 °C.

B10: wild type, Q40059 (protein)
chain: MSSMEKKPEGVNIGAGDRQNQKTEWPELVGKSVEEAKKVILQDKPAAQIIVLPVGTIVTMEYRIDRVRLFVDRLDNIAQVPRVG
For B10, the Tm (Hordeum vulgare, pH 4.15, Thermal, CD, acetate 10 mM, reversible: no) stood at 74.3 °C. Also, under setting [12], the denaturant m value was 1.76 kcal/mol/M, the “denaturant midpoint” value was found to be 4.05 M and the unfolding free energy was 7.16 kcal/mol. Also, under setting [13], the denaturant m value is 1.96 kcal/mol/M and 2.01 kcal/mol/M; the unfolding free energy was 7.41 kcal/mol and 7.27 kcal/mol and 7.22 kcal/mol.
